The source of these data is patent US20120003668A1, “HIGH RESOLUTION COMPLEX STRUCTURE AND ALLOSTERIC EFFECTS OF LOW MOLECULAR WEIGHT ACTIVATORS ON THE PROTEIN KINASE PDK1” (UNIVERSITAET DES SAARLANDES, priority 2008, published 2012).

Substitutions are numbered along the chain they refer to.

For assay [1], the target named is T1, PDK1[Phe224Trp] (Homo sapiens, UniProt O15530, F224W).
T1 construct: The catalytic domain (CD) of PDK1 50-359 and its mutants Phe224Trp and Thr226Trp were expressed in insect cells and purified; made in house; host or cells: insect cells
T1 sequence (O15530 50-359 F224W): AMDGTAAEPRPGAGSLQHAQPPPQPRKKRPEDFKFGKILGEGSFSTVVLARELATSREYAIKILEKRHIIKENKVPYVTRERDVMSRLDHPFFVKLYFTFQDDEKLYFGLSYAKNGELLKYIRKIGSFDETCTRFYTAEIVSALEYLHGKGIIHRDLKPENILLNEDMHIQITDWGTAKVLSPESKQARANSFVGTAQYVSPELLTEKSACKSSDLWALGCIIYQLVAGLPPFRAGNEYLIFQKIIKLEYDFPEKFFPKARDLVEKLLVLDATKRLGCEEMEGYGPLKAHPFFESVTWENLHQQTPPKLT
Put plainly: PDK1 protein kinase activity test with T308tide substrate, Phe224Trp mutant. The class given is biochemical. As to conditions: PDK1 CD 50-359, T308tide as substrate. As for the experimental part: (§1) Protein kinase activity tests: PDK1 activity tests were performed essentially as previously described (Biondi, R. M. et al., Embo. J. 20:4380-4390 (2001); Balendran, A. et al., J. Biol. Chem. 275:20806-20813 (2000); Biondi, R. M. et al., Embo. J. 19:979-988 (2000)) using T308tide as a substrate for PDK1. In brief, PDK1 activity assay was performed at room temperature (22° C.) in a 20 μl mix containing 50 mM Tris pH 7.5, 0.05 mg/ml BSA, 0.1% β-mercaptoethanol, 10 mM MgCl2, 100 μM [γ^32P]ATP (5-50 cpm/pmol), 0.003% Brij, 150 ng PDK1, and T308tide (from 0.1 to 1 mM). When appropriate, the PDK1 activity assay was performed in a 96 well format and 4 μl aliquots spotted with on p81 phosphocellulose papers (Whatmann) using ep motion 5070 (Eppendorf), washed in 0.01% phosphoric acid, dried, and then exposed and analysed using PhosphoImager technology (Typhoon, GE Healthcare). Activity measurements were performed in duplicates with less than 10% difference between pairs. Experiments were repeated at least twice. PDK1 specific activity at 22° C. was approximately 0.25 U/mg when the substrate concentration was 0.1 mM T308tide. […]

Another assay deals with T2, PDK1[Thr226Trp] (Homo sapiens, UniProt O15530, T226W).
T2 construct: The catalytic domain (CD) of PDK1 50-359 and its mutants Phe224Trp and Thr226Trp were expressed in insect cells and purified; made in house; host or cells: insect cells
T2 sequence (O15530 50-359 T226W): T1 sequence (O15530 50-359 F224W) with W175F, T177W
Put plainly: PDK1 protein kinase activity test with T308tide substrate, Thr226Trp mutant. The class given is biochemical. The conditions noted are these: PDK1 CD 50-359, T308tide as substrate. As for the experimental part: as §1

The next assay concerns the target T3, PDK1 catalytic domain (Homo sapiens, UniProt O15530).
T3 construct: The catalytic domain (CD) of PDK1 50-359 and its mutants
T3 sequence (O15530 50-359): T1 sequence (O15530 50-359 F224W) with W175F
In words: TNP-ATP fluorescence probing of the ATP binding site conformation. The conditions noted are these: 40 μM TNP-ATP, 15 μM PDK1 catalytic domain. The class given is biochemical. From the text:
Probing the conformation of the ATP binding site in PDK1: The activation of PDK1 by HM-polypeptides and small compounds is due to a change in the conformation of the enzyme. We probed the conformation of the ATP binding site in PDK1 by scanning the steady-state fluorescence of TNP-ATP/PDK1, in the presence or absence of P-HM-polypeptides, PIFtide, or small molecular weight compounds. Data were obtained in a Varian Cary Eclipse spectrofluorometer (excitation λ=479 nm; emission scanning, λ=500-600 nm; excitation slit=10 nm; emission slit=10 nm) at a rate of 200 nm/min, with 150 datapoints/100 nm scanning and 0.3 s averaging time. The incubation was performed at 20° C. in a buffer containing 50 mM Tris pH 7.5, 0.1 mM EDTA, 187 mM NaCl, 40 μM TNP-ATP, 15 μM PDK1 catalytic domain, 1 mM DTT and 1% DMSO. In the absence of PDK1, TNP-ATP produced approximately 1.5 arbitrary units (a.u.) of fluorescence, and the inclusion of PDK1 increased its fluorescence intensity to approximately 3.3 a.u. […] In preliminary tests, inclusion of 2.5 mM MgCl2 in the assay mix produced similar results. Data for each condition are the average of 3 scans.

For assay [2], the target named is T1, PDK1[Phe224Trp]. Put plainly: Surface plasmon resonance (BiaCore) on biotin-P-HM-S6K chip, Phe224Trp mutant. The class given is binding. The conditions noted are these: protein pre-incubated with PIFtide. Here is the method: Surface Plasmon resonance (BiaCore) and alpha-screen interaction and displacement assays: Binding of GST-PDK1 to a P-HM-polypeptide derived from S6K1 shown in FIG. 6 was analysed by surface plasmon resonance on a BiaCore 3000 system using a streptavidin-coated Sensor chip (SA) and biotin-P-HM-polypeptide, as previously described (Biondi, R. M. et al., Embo. J. 20:4380-4390 (2001). The interaction of His-PDK1 with biotin-PIFtide and the displacement by compounds shown in FIG. 3 was performed using the alpha-screen Ni-Chelate kit (Perkin Elmer) on an Envision 2104 multilabel system (Perkin Elmer).
BiaCore analysis was performed as described previously (Biondi, R. M. et al., Embo. J. 19:979-988 (2000)). […] Since both mutants were performed on the same construct of PDK1, their mass should be very similar and therefore should also produce 600RU when all biotin-(P)HM-S6K polypeptides on the same chip are bound to the mutant PDK1 proteins. Unfortunately, when mutant PDK1 Phe224Trp and PDK1 Thr226Trp were analysed, the injection of the mutants at concentrations higher than 1.3 μM prompted unspecific effects, therefore making difficult the evaluation. […]
A general note: SPR reads the build-up and loss of mass on a sensor chip optically.

With “REPRILSEEEQEMFRDFDYIADWC [PIFtide, polypeptide derived from the C-terminal 24 amino acids of the PDK1 substrate PRK2]”, the “activation of PDK1[Phe224Trp]” value with PDK1[Phe224Trp] [1] is recorded as “activated”. For the same sequence, the “activation of PDK1[Thr226Trp]” value in the assay with PDK1[Thr226Trp] was “not activated”. Also, the “effect on TNP-ATP fluorescence intensity in the presence of PDK1” value with PDK1 catalytic domain was “decreased”. Besides, the “displacement by PIFtide of PDK1[Phe224Trp] binding to the chip” value in the assay with PDK1[Phe224Trp] [2] is “displaced”.
